Target: T1, human ACE2 protein (GenScript) (human, UniProt Q9BYF1 18-740)
T1 construct: also called angiotensin-converting enzyme 2; hACE2
Assay: ELISA, plate-bound ACE2, detection by anti-His antibody

T1 sequence (Q9BYF1 18-740 limits assumed): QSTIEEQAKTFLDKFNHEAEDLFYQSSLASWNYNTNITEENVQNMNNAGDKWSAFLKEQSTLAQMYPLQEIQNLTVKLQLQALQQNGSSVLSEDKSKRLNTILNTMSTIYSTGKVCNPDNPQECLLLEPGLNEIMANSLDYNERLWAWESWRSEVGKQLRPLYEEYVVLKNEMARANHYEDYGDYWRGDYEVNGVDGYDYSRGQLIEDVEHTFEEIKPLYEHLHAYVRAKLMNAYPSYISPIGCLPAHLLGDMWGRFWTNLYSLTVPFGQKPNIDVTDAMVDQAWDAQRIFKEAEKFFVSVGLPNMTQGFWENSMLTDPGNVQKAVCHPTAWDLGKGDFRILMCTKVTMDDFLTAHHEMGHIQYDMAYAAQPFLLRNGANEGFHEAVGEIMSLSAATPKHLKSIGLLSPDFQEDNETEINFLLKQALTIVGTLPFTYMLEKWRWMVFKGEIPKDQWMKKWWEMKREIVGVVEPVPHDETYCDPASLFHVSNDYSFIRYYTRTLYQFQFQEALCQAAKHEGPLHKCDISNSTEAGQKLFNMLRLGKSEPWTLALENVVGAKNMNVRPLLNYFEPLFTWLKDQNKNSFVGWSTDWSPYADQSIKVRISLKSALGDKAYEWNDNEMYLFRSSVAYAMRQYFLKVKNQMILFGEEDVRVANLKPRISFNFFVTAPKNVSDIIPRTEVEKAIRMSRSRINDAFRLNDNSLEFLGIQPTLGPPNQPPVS

B1: cysteine-containing, His-tagged recombinant Parietaria allergen, Par j 2 (other)
chain: EEACGKVVQDIMPCLHFVKGEEKEPSKECCSGTKKLSEEVKTTEQKREACKCIVRATKGISGIKNELVAEVPKKCDIKTTLPPITADFDCSKIQSTIFRGYY
notes: also called negative control protein
Question: Does B1 bind?
Answer: no binding
